B1: Pistol ribozyme (parent)
chain: GGGUCGUUGUUCCAUAAUCGCGUGGAUAUGGCACGCAAGUUUCUACCGGGCACCGUAAAUGUCCGACUGGAGCCGUUCGGGCGGCUAUAAACAGACCUCAGGCCCGAAGCGUGGCGGCACCUGCCGCCGGUGGUAAAAAAGAUCGGAAGAGCACACGUCU

We go through 84 variants from the RNAGym collection of RNA variant scans (doi:10.1021/acssynbio.7b00057).

This series covers variants of B1. Kind of series: aptazyme ON/OFF ratio, guanine; higher = stronger switching; co-transcriptional cleavage with and without guanine.
On to U8C U10G U11G C12G, for which the “aptazyme ON/OFF ratio” value amounted to 1.25.
U8C U10G U11G C12A: the “aptazyme ON/OFF ratio” value was determined as 1.18.
As for U8C U10G U11G C12U, the figure is 1.32; as for U8G, 3.01; as for U8C U11A C12U C13G, 1.18.
As to U8C U11A C12U C13A, the “aptazyme ON/OFF ratio” value is 1.21.
Consider U8C U11A C12U C13U, for which the “aptazyme ON/OFF ratio” value was determined as 1.13.
For U8C U11A, the “aptazyme ON/OFF ratio” value came out at 1.15.
In the case of U8C U11C, the “aptazyme ON/OFF ratio” value was 1.18.
Then U8C U11G, with 1.26; and U8G C12A C13A, with 1.25; and U8G C12A C13U, with 1.12.
Turning to U8G C12A C13G, the “aptazyme ON/OFF ratio” value turned out to be 1.13.
Regarding U8C U11A C12A C13G, the “aptazyme ON/OFF ratio” value is 1.11.
As for U8C U11A C12A C13U, the “aptazyme ON/OFF ratio” value was determined as 1.28.
Consider U8C U11A C12A C13A, for which the “aptazyme ON/OFF ratio” value came out at 1.32.
U8C U10G U11A C12U C13G: the “aptazyme ON/OFF ratio” value was 1.12.
On to U8C U10G U11A C12U C13A, for which the “aptazyme ON/OFF ratio” value was determined as 1.35.
For U8C U10G U11A C12U C13U, the “aptazyme ON/OFF ratio” value stood at 1.25.
Turning to U8C U10G U11G, the “aptazyme ON/OFF ratio” value was 1.26.
Turning to U8C U10G U11C, the “aptazyme ON/OFF ratio” value was 1.1.
On to U8C U10G U11A, for which the “aptazyme ON/OFF ratio” value amounted to 1.07.
Consider U8C U10G C12G, for which the “aptazyme ON/OFF ratio” value came to 1.07.
In the case of U8C U10G C12U, the “aptazyme ON/OFF ratio” value came to 1.36.
Then U8C U11A C12U, with 1.19; and U8C U11A C12G, with 1.25.
As for U8C U11A C12A, the figure is 1.34.
Then U8C U10G U11A C13U, with 1.18; and U8C U10G U11A C13A, with 1.26; and U8C U10G U11A C13G, with 1.19.
Consider U8C U11G C12A C13U, for which the “aptazyme ON/OFF ratio” value is 1.16.
For the variant U8C U11G C12A C13G, the “aptazyme ON/OFF ratio” value is 1.16.
As for U8C U11G C12A C13A, the “aptazyme ON/OFF ratio” value was found to be 1.16.
As for U8C U11G C13U, the figure is 1.17; as for U8C U11G C13G, 1.06; as for U8C U11G C13A, 1.05.
On to U8C U10G C12A C13G, for which the “aptazyme ON/OFF ratio” value was determined as 1.11.
Then U8C U10G C12A C13U, with 1.11.
For the variant U8C U11G C12U C13G, the “aptazyme ON/OFF ratio” value was 1.07.
For the variant U8C U11G C12U C13U, the “aptazyme ON/OFF ratio” value is 1.17.
U8C U11G C12U C13A: the “aptazyme ON/OFF ratio” value came out at 1.08.
In the case of U8G G9A, the “aptazyme ON/OFF ratio” value was determined as 1.64.
Turning to U8C U10G C12U C13A, the “aptazyme ON/OFF ratio” value was 1.21.
Regarding U8C U10G C12U C13G, the “aptazyme ON/OFF ratio” value stood at 1.11.
Then U8C U10G C12U C13U, with 1.2; and U8G G9A C12G C13A, with 1.37; and U8G G9A C12G C13G, with 1.29.
In the case of U8G G9A C12G C13U, the “aptazyme ON/OFF ratio” value worked out at 1.33.
As for U8G G9A U10A C12U C13U, the “aptazyme ON/OFF ratio” value worked out at 1.29.
Regarding U8G G9A U10A C12U C13G, the “aptazyme ON/OFF ratio” value worked out at 1.31.
Take U8G G9A U10A C12U C13A: the “aptazyme ON/OFF ratio” value turned out to be 1.15.
As for U8C U10G U11G C13G, the figure is 1.2; as for U8C U10G U11G C13A, 1.25.
Then U8C U10G U11G C13U, with 1.22; and U8C U10G C12G C13G, with 1.12; and U8C U10G C12G C13A, with 1.09.
Turning to U8C U10G C12G C13U, the “aptazyme ON/OFF ratio” value is 1.12.
In the case of U8C U10G U11C C12A C13A, the “aptazyme ON/OFF ratio” value stood at 1.24.
U8C U10G U11C C12A C13U: the “aptazyme ON/OFF ratio” value worked out at 1.32.
Then U8C U10G U11C C12A C13G, with 1.11.
In the case of U8C U11C C12U, the “aptazyme ON/OFF ratio” value was 1.55.
As for U8C U11C C12G, the figure is 1.34.
Take U8C U11C C12A: the “aptazyme ON/OFF ratio” value was 1.14.
As for U8G G9A C12U C13A, the “aptazyme ON/OFF ratio” value worked out at 1.25.
As for U8G G9A C12U C13U, the “aptazyme ON/OFF ratio” value worked out at 1.25.
For U8G G9A C12U C13G, the “aptazyme ON/OFF ratio” value stood at 1.28.
U8G G9A U10A U11A C12G: the “aptazyme ON/OFF ratio” value was 1.28.
As for U8G G9A U10A U11A C12U, the figure is 1.35; as for U8G G9A U10A U11A C12A, 1.21; as for U8G G9A U10A C12A, 1.32.
Regarding U8G G9A U10A C12U, the “aptazyme ON/OFF ratio” value turned out to be 1.27.
With U8G G9A U10A C12G, the “aptazyme ON/OFF ratio” value stood at 1.18.
With U8G G9A U10A C12G C13U, the “aptazyme ON/OFF ratio” value was 1.35.
For U8G G9A U10A C12G C13G, the “aptazyme ON/OFF ratio” value is 1.3.
For the variant U8G G9A U10A C12G C13A, the “aptazyme ON/OFF ratio” value is 1.22.
Consider U8C U11C C12A C13G, for which the “aptazyme ON/OFF ratio” value was 1.4.
In the case of U8C U11C C12A C13U, the “aptazyme ON/OFF ratio” value stood at 1.73.
Consider U8C U11C C12A C13A, for which the “aptazyme ON/OFF ratio” value worked out at 1.24.
For the variant U8C U11C C12G C13U, the “aptazyme ON/OFF ratio” value is 1.36.
As for U8C U11C C12G C13A, the “aptazyme ON/OFF ratio” value was found to be 1.37.
For the variant U8C U11C C12G C13G, the “aptazyme ON/OFF ratio” value was determined as 1.36.
As for U8C U11C C13A, the figure is 1.21.
Take U8C U11C C13G: the “aptazyme ON/OFF ratio” value came out at 1.11.
Regarding U8C U11C C13U, the “aptazyme ON/OFF ratio” value stood at 1.19.
